Experiment [1] concerns the target gp41 bait of pBT3-SUC-gp41 (ectodomain and transmembrane region of gp41, HIV-1 Env aa 534-709). Put plainly: split-ubiquitin yeast two-hybrid, β-galactosidase activity assay. The note with it: yeast NMY51, three independent yeast colonies, parent: est. 39, read off a plot.
The target in experiment [2] is SP-gp41-CFP (HIV-1). Put plainly: FRET or BRET; acceptor photobleaching FRET in HEK293T cells 24 h after transfection; donor SP-gp41-CFP, acceptor CD63-YFP; 514 nm bleaching.

As to “CD63 TM4LEL (aa 108-238), single membrane spanning prey (from UniProt P08962) C191A”, in experiment [1], the response amounted to 17 Miller units. Consider “CD63_(C145A,C146A)-YFP (from UniProt P08962 1-238) (natural protein)”, for which the reduction of FRET efficiency against CD63-YFP as acceptor in experiment [2] is less than 58%. With “CD63 TM4LEL (aa 108-238), single membrane spanning prey (from UniProt P08962) C169A; C170A”, the response in experiment [1] was determined as 30 Miller units. For “CD63 TM4LEL (aa 108-238), single membrane spanning prey (from UniProt P08962) C145A; C146A”, in experiment [1], the response was 11 Miller units. As to “CD63 TM4LEL (aa 108-238), single membrane spanning prey (from UniProt P08962) C177A”, the response in experiment [1] amounted to 25 Miller units.

The record behind these values is paper PMC8113602.
